Test results taken from patent US20230406919A1 (Johns Hopkins, published 2023).

What was measured:
[1] = target: T1, Calmodulin (CaM) (mammalian, UniProt P0DP23 1-149); experiment: periplasmic-extract ELISA, 1:100 extract on 0.1 ug coated Ca2+CaM or apoCaM, anti-HA detection; positive above absorbance 2
T1 construct: also called free CaM; CaM alone

[2] = target: T1, Calmodulin (CaM); experiment: co-expression in E. coli, GST pull-down and anion exchange chromatography

| binding result [1] | binding result [2] | Binder |
| --- | --- | --- |
| binds |  | Nb26 (VHH, pHEN4 clone, HA-tagged, periplasmic extract; also called family 4) VHH: QVQLQESGGGSVQAGGSLRLSCVASGRTFSSYAMAWFRQVPGKEREFVGRISRSGGSTMYADSVKGRFDISRDNAKNTVFLQMSSLKPEDTAVYYCAAKAAVILTGIPDYWGQGTQVTVSS |
|  | no binding | CTNav1.9T (other, range 1605-1768; GST tag cleaved) ENFNTATEESEDPLGEDDFDIFYEVWEKFDPEATQFIKYSALSDFADALPEPLRVAKPNKYQFLVMDLPMVSEDRLHCMDILFAFTARVLGGSDGLDSMKAMMEEKFMEANPLKKLYEPIVTTTKRKEEERGAAIIQKAFRKYMMKVTKGDQGDQNDLENGPHS |
|  | no binding | CTNav1.9FL (other, range 1605-1791; GST tag cleaved) ENFNTATEESEDPLGEDDFDIFYEVWEKFDPEATQFIKYSALSDFADALPEPLRVAKPNKYQFLVMDLPMVSEDRLHCMDILFAFTARVLGGSDGLDSMKAMMEEKFMEANPLKKLYEPIVTTTKRKEEERGAAIIQKAFRKYMMKVTKGDQGDQNDLENGPHSPLQTLCNGDLSSFGVAKGKVHCD |
